Source: patent US6958321B2, “Isolation, characterization, cloning and use of a mushroom lectin” (The Regents of the University of Michigan, priority 2001, dated 2005)

Assays:
Assay in all cases: Agglutination of cells by Marasmius oreades lectin
Format in all cases: cell-based
Human O erythrocytes = conditions: human type O erythrocytes
Description: (§1) In some embodiments, blood group specificity of MOA is determined in hemagglutination assays (see Examples below). Briefly, formaldehyde-treated erythrocytes in V-well microtitre plates are used in a protocol as described in Mo et al. [J. Biol. Chem 275:10623 (2000)], herein incorporated by reference. […] Example 3, below, presents the data for agglutination activity against a variety of cell types. […] Biochemistry 22: 5290 (1983)].
(§2) Hemagglutination assays were carried out using formaldehyde-treated erythrocytes in V-well microtitre plates as described by Mo et al. [J. Biol. Chem 275:10623 (2000)], herein incorporated by reference. Titres were recorded as the greatest dilution of the lectin solution yielding visible agglutination. Agglutination of Ehrlich ascites tumor cells (grown in in vitro culture) was observed microscopically.
(§3) Hemagglutination activity was unchanged by extensive dialysis of the lectin and assay in metal-free buffer containing EDTA, indicating the absence of a divatent metal ion requirement. As noted in Example 2, subsequent assays and purifications routinely used metal-free buffers containing EDTA.

Human B erythrocytes = tested on: Human B erythrocytes
Description: as §1, §2, §3

[1] = tested on: Cultured Ehrlich ascites tumor cells
Description: as §1, §2, §3

Human A erythrocytes = conditions: human type A erythrocytes
Description: as §1, §2, §3

B1: MOA: M. oreades lectin (agglutinin) with binding specificity for Galα1,3Gal; single polypeptide of approximately 33 kDa (protein)
chain: MSLRRGIYHIENAGVPSAIDLKDGSSSDGTPIVGWQFTPDTINWHQLWLAEPIPNVADTFTLCNLFSGTYMDLYNGSSEAGTAVNGWQGTAFTTNPHQLWTIKKSSDGTSYKIQNYGSKTFVDLVNGDSSDGAKIAGWTGTWDEGNPHQKWYFNRMSVSSAEAQAAIARNPHIHGTYRGYILDGEYLVLPNATFTQIWKDSGLPGSKWREQIYDCDDFAIAMKAAVGKWGADSWKANGFAIFCGVMLGVNKAGDAAHAYNFTLTKDHADIVFFEPQNGGYLNDIGYDSYMAFY
- hemagglutination activity (Human O erythrocytes): very little activity
- hemagglutination activity (Human B erythrocytes): Strong
- agglutination [1]: readily agglutinated
- hemagglutination activity (Human A erythrocytes): very little activity
